# Laboratory results from US7429563B2, “Peptide carrier for drug delivery” (The Board of Trustees of the University of Illinois, priority 2004, dated 2008).
# Entries after “also recorded” stand apart in the source; their conditions may differ.
# Experiments:
# HSA = target: T1, HSA (Homo sapiens, UniProt P02768); experiment: 125I-HSA binding to MPO peptides immobilized on nitrocellulose (dot-blot); conditions: immobilized peptide
# T1 construct: purchased Sigma (St. Louis, Mo.)
# Protocol: ^125I-labeling and binding of proteins: HSA and MPO were labeled with ^125I using IODO-GEN reagent from Pierce (Rockford, Ill.). ^125I HSA binding to the MPO peptides was determined by dot-blot analysis. Peptides were immobilized on nitrocellulose membranes and non-specific binding was blocked with bovine γ-globulin (2 mg/ml in PBS) for 1 h at 22° C. Membranes were washed 2× with PBS and incubated with ^125I-labeled HSA (0.3 pM) for 2 h at 22° C. Membranes were then washed 4× with PBS containing 0.05% Tween-20 (PBST) and autoradiography was performed. In some experiments, the membranes were directly counted to determine the membrane-associated radioactivity.
# Peptides were immobilized on nitrocellulose membranes and then incubated with 1 ml of 0.3 μM ^125I-HSA in PBS for 2 h. Other details were described in Example 1. Non-specific binding was determined by incubating membranes with ^125I-HSA in the absence of any peptides. Results are shown mean±S.E. for three separate experiments made in triplicate.
# albumin = experiment: Albumin binding of ELKSLNPRWDGE, albumin from a variety of sources; conditions: e.g., human, porcine, murine
# BLMVEC monolayers = experiment: Transendothelial 125I-MPO permeability, Transwell filters; type: cell-based, bovine
# Protocol: FIG. 2A-FIG. 2C: Albumin increases the binding of ^125I-MPO to endothelial cell surface. The binding of ^125I-MPO to BLMVEC was measured as described in Example 1. Results are shown as mean SEM of three separate experiments made in a triplicate binding assay. *, indicates difference from control (p<0.05); **, (p<0.001) different from control (i.e., binding was determined in the presence of 5 mg/ml γ-globulin). […] FIG. 2B: Effects of albumin on time course transendothelial transport of MPO. BLMVEC grown on microporous Transwell filters were used to determine transendothelial transport of MPO as described in Example 1. […] The transendothelial ^125I-MPO clearance rate was calculated as described (24, 27). *, indicates difference from control or CD-treated group (p<0.001). […] Lung preparations were perfused at 37° C. with Krebs-albumin solutions at the indicated concentrations; MPO PS (μl/min/g wet lung) was determined by perfusing ^125I-MPO for 10 min, and removing vascular tracer with Krebs for 6 min and bound tracer with cold (12° C.) acetate buffer (pH 4.5) for 3 min. ^125I-MPO PS increased 2-fold upon increasing [BSA] from 0.05 to 0.4 g/100 ml. […]
# Transendotlielial ^125I-MPO permeability: Transendothelial permeability of ^125I-MPO in BLMVEC monolayers was determined using Transwell filter units (24, 27). […]
# BLMVEC [1] = experiment: MPO uptake and localization by confocal immunostaining; type: cell-based, bovine; conditions: for MPO staining (localization): 30 min 37° C.
# Protocol: FIG. 3A-FIG. 3E: Albumin induces the endocytosis of MPO in endothelial cells. BLMVEC grown on glass coverslips were incubated with buffer C for 12 h. Cells were then incubated with buffer C containing 25 nM MPO alone or in combination with Alexa-594 BSA (50 μg/ml) and unlabeled BSA (1 mg/ml) for 30 min at 37° C. Cells were washed 3×, fixed with 4% PFA in HBSS for 30 min at 22° C., and blocked with 5% goat serum in HBBS containing 0.1% Triton X-100 (blocking buffer) for 30 min at 22° C. After washing, the cells were incubated with anti-MPO Ab diluted (1:1000) in blocking buffer at 4° C. overnight. After washing 2×, cells were incubated with Alexa-488 labeled (green) secondary Ab in blocking buffer for 60 min at 4° C. Confocal images were obtained as described in Methods. […] There was a marked co-localization of […] (green) and Alexa-594 BSA (red) in merged image (yellow; right). FIG. 3B: Albumin induces the co-localization of MPO with cholera toxin subunit B (CTB) in endothelial cells. BLMVEC were grown as described in FIG. 3A. Cells were incubated with Alexa 488-CTB; (20 ug/ml), MPO (25 nM), and BSA (1 mg/ml) in buffer C for 30 min at 37° C. After this, cells were washed, fixed, permeabilized, and stained with anti-MPO Ab and AlexaA594 labeled secondary antibody. Cells were visualized by confocal microscopy after mounting. Confocal images of CTB (green-left panel) and anti-MPO Ab staining (red-middle panel) in vesicles are shown. […] There was marked merging in vesicles in the YZ projection image (far left panel) and single frame (X-Y) or single line (Y-Z and X-Z) images (left panel) observed in the presence of albumin compared to the green CTB-positive/MPO negative vesicles observed in the absence albumin (right and far right panels). […]
# Immunostaining: Cellular localization of MPO, albumin, CTB (a caveolae marker), and caveolin-1 was determined by confocal microscopy (Minshall et al., J. Cell Biol., 150:1057-1069 (2000); John et al., Am. J. Physiol. Lung Cell Mol. Physiol., 284:L187-L196 (2003)). […] MPO uptake in BLMVEC was determined in the presence or absence of albumin or CTB. […]
# BLMVEC [2] = experiment: 125I-MPO binding to endothelial cell surface; type: cell-based, bovine; conditions: increasing BSA 1-50 mg/ml in binding buffer; 4° C., 1 h
# Protocol: (§1) FIG. 2A-FIG. 2C: Albumin increases the binding of ^125I-MPO to endothelial cell surface. The binding of ^125I-MPO to BLMVEC was measured as described in Example 1. Results are shown as mean SEM of three separate experiments made in a triplicate binding assay. *, indicates difference from control (p<0.05); **, (p<0.001) different from control (i.e., binding was determined in the presence of 5 mg/ml γ-globulin). […] FIG. 2B: Effects of albumin on time course transendothelial transport of MPO. BLMVEC grown on microporous Transwell filters were used to determine transendothelial transport of MPO as described in Example 1. To study the methyl-B-cyclodextrin (CD) effect, luminal chamber was incubated with 5.0 mM CD for 20 min prior to measuring ^125I-MPO permeability. […] The transendothelial ^125I-MPO clearance rate was calculated as described (24, 27). *, indicates difference from control or CD-treated group (p<0.001). […] Lung preparations were perfused at 37° C. with Krebs-albumin solutions at the indicated concentrations; MPO PS (μl/min/g wet lung) was determined by perfusing ^125I-MPO for 10 min, and removing vascular tracer with Krebs for 6 min and bound tracer with cold (12° C.) acetate buffer (pH 4.5) for 3 min. ^125I-MPO PS increased 2-fold upon increasing [BSA] from 0.05 to 0.4 g/100 ml. […]
# lung microvessels = experiment: Pulmonary vascular 125I-MPO permeability x surface area (PS), isolated-perfused lung; parameters: species or system rat
# Protocol: as §1
molecule,measurement,setting,value
"GLATELGSLNPGWDGEGLYQEAGGIVGAMV [MPO-MT-peptide, mutant of MPO-WT-peptide, K and R replaced with G]",binding to HSA (in words),HSA,failed to bind
EARKIV,binding to HSA (in words),HSA,no binding; also recorded: failed to bind
ELKSLNPRWDGE,ability to bind albumin from a variety of sources,albumin,able to bind to albumin from any of a variety of sources
"methyl-β-cyclodextrin [CD, reference compound]",effect on transport of 125I-MPO in the presence of albumin,BLMVEC monolayers; CD 5.0 mM for 20 min,prevented the transport
same,effect on albumin-induced MPO uptake,BLMVEC [1]; 5.0 mM CD for 20 min at 37° C.,prevented the albumin-induced MPO uptake
"MPO: MPO purified from human PMNs (Calbiochem), 125I-labeled for binding and permeability (protein, listed as Homo sapiens, 125I label) MGVPFFSSLRCMVDLGPCWAGGLTAEMKLLLALAGLLAILATPQPSEGAAPAVLGEVDTSLVLSSMEEAKQLVDKAYKERRESIKQRLRSGSASPMELLSYFKQPVAATRTAVRAADYLHVALDLLERKLRSLWRRPFNVTDVLTPAQLNVLSKSSGCAYQDVGVTCPEQDKYRTITGMCNNRRSPTLGASNRAFVRWLPAEYEDGFSLPYGWTPGVKRNGFPVALARAVSNEIVRFPTDQLTPDQERSLMFMQWGQLLDHDLDFTPEPAARASFVTGVNCETSCVQQPPCFPLKIPPNDPRIKNQADCIPFFRSCPACPGSNITIRNQINALTSFVDASMVYGSEEPLARNLRNMSNQLGLLAVNQRFQDNGRALLPFDNLHDDPCLLTNRSARIPCFLAGDTRSSEMPELTSMHTLLLREHNRLATELKSLNPRWDGERLYQEARKIVGAMVQIITYRDYLPLVLGPTAMRKYLPTYRSYNDSVDPRIANVFTNAFRYGHTLIQPFMFRLDNRYQPMEPNPRVPLSRVFFASWRVVLEGGIDPILRGLMATPAKLNRQNQIAVDEIRERLFEQVMRIGLDLPALNMQRSRDHGLPGYNAWRRFCGLPQPETVGQLGTVLRNLKLARKLMEQYGTPNNIDIWMGGVSEPLKRKGRVGPLLACIIGTQFRKLRDGDRFWWENEGVFSMQQRQALAQISLPRIICDNTGITTVSKNNIFMSNSYPRDFVNCSTLPALNLASWREAS",binding of 125I-MPO to the endothelial cell surface,BLMVEC [2],increased the binding
same,increase of transendothelial 125I-MPO permeability,"BLMVEC monolayers; in the presence of albumin, compared to γ-globulin (5 mg/ml)",more than 2 fold
same,MPO PS at higher BSA concentrations,lung microvessels; BSA 0.25 and 0.4 g/100 ml,did not increase further
same,increase in 125I-MPO PS,lung microvessels; upon increasing [BSA] from 0.05 to 0.4 g/100 ml,2 fold
same,MPO staining (localization),BLMVEC [1]; 25 nM MPO plus 1 mg/ml BSA,markedly co-localized with albumin-containing vesicles
same,MPO staining (localization),"BLMVEC [1]; 25 nM MPO, absence of albumin",observed only on the cell surface
